# Laboratory results taken from paper doi:10.1101/333070.
# Target: mouse proNGF (mouse) (UniProt P01139)
# Experiment: SAXS
substance,measurement,value
mouse proNGF (from UniProt P01139 19-241) (natural protein),stoichiometry N,2
